Nine molecules from publication PMC3646915 (Journal of molecular biology, 2013) can be followed below.

What is called stoichiometry N is the number of molecules, sites or subunits per partner or assembly.

B3: AtHsp18.5 tryptic fragment 12–153 (domain or fragment, Arabidopsis thaliana, UniProt O64564 12-153, looked up)
chain: LSPGDRIWEPFELMNTFLDFPSPALFLSHHFPSLSREIFPQTSSSTVNTQLNWTETPTAHVFKAYLPGVDQDEVIAFVDEEGYLQICTGDNKFMSRFKLPNNALTDQVTAWMEDEFLVVFVEKDASSSPPQLPEIEENRNVR
B8: AtHsp18.5 tryptic fragment 11–150 (domain or fragment, Arabidopsis thaliana, UniProt O64564 11-150, looked up)
chain: RLSPGDRIWEPFELMNTFLDFPSPALFLSHHFPSLSREIFPQTSSSTVNTQLNWTETPTAHVFKAYLPGVDQDEVIAFVDEEGYLQICTGDNKFMSRFKLPNNALTDQVTAWMEDEFLVVFVEKDASSSPPQLPEIEENR
B9: AtHsp18.5 tryptic fragment 11–153 (domain or fragment, Arabidopsis thaliana, UniProt O64564 11-153, looked up)
chain: RLSPGDRIWEPFELMNTFLDFPSPALFLSHHFPSLSREIFPQTSSSTVNTQLNWTETPTAHVFKAYLPGVDQDEVIAFVDEEGYLQICTGDNKFMSRFKLPNNALTDQVTAWMEDEFLVVFVEKDASSSPPQLPEIEENRNVR

Series [1] addresses B8. Briefly: native MS.
Series [2] deals with B9. Kind of series: native MS.
The target in series [3] is B3. Kind of series: native MS.
Series [4] concerns the molecule itself. Briefly: native MS.
Series [5] deals with the molecule itself. Briefly: native MS. The source holds these as a separate data set.
The series “native gel or EMSA” concerns the molecule itself. Briefly: native gel or EMSA. On the technique in general: Mobility shift assays separate free from complexed probe on a gel.
Series [6] concerns the molecule itself. Briefly: native gel or EMSA + cross-linking + native MS + AUC.
In series [7] the target is T1, porcine mitochondrial malate dehydrogenase (porcine, UniProt P00346 25-338).
T1 sequence (looked up): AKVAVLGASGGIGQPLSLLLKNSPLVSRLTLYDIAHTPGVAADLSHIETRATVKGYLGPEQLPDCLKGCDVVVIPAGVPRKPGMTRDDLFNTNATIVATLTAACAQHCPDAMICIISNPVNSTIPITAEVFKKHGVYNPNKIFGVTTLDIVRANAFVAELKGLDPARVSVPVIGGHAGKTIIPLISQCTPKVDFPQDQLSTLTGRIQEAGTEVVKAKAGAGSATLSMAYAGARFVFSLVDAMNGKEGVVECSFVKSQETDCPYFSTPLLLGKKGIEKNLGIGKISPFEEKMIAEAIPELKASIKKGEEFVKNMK
Briefly: SEC.

Another series has as its target firefly luciferase (firefly, UniProt P08659 1-550 = luciferase). Briefly: SEC. A general note: SEC sorts molecules by how far they enter the pores of the column.

Read-outs that look alike come from different tables or passages of the source.

Sequence of firefly luciferase (P08659 whole entry): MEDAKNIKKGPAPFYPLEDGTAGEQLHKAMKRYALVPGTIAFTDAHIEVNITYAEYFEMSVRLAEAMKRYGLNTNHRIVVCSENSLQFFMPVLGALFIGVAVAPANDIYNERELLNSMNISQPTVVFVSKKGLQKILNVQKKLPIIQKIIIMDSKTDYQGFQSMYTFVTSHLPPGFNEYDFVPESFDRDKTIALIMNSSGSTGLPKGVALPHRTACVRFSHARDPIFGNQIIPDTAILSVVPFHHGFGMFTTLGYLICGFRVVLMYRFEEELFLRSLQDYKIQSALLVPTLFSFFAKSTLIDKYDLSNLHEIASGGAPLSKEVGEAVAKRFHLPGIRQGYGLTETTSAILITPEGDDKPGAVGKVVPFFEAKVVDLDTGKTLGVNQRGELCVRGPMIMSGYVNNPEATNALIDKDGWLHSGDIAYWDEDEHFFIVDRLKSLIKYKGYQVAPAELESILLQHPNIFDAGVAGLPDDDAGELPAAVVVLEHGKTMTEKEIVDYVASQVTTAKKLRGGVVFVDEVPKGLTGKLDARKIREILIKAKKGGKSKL

B1: AtHsp18.5 tryptic fragment 48–153 (domain or fragment, Arabidopsis thaliana, UniProt O64564 48-153, looked up)
chain: EIFPQTSSSTVNTQLNWTETPTAHVFKAYLPGVDQDEVIAFVDEEGYLQICTGDNKFMSRFKLPNNALTDQVTAWMEDEFLVVFVEKDASSSPPQLPEIEENRNVR
For B1, the binding result in series [1], in series [2] and in series [3] was “binds” in each case.

B2: AtHsp18.5 truncation mutant 25–153 (domain or fragment, Arabidopsis thaliana, UniProt O64564 25-153, looked up)
chain: MNTFLDFPSPALFLSHHFPSLSREIFPQTSSSTVNTQLNWTETPTAHVFKAYLPGVDQDEVIAFVDEEGYLQICTGDNKFMSRFKLPNNALTDQVTAWMEDEFLVVFVEKDASSSPPQLPEIEENRNVR
As to B2, the binding result in “native MS [4]” is reported as “binds”.

As for B3, in the series “native MS [5]”, the binding result is given as “binds”.

B4: AtHsp18.5 with N-terminal Strep II tag (natural protein, Arabidopsis thaliana, UniProt O64564 1-162, looked up)
chain: MSMIPISNRRRLSPGDRIWEPFELMNTFLDFPSPALFLSHHFPSLSREIFPQTSSSTVNTQLNWTETPTAHVFKAYLPGVDQDEVIAFVDEEGYLQICTGDNKFMSRFKLPNNALTDQVTAWMEDEFLVVFVEKDASSSPPQLPEIEENRNVRVVEITGDDD
For the molecule B4, the “stoichiometry N” value in the series “native gel or EMSA” stood at 2.

B5: AtHsp18.5 with Cys98 substituted by Ala (natural protein, Arabidopsis thaliana, UniProt O64564 1-162, looked up)
chain: MSMIPISNRRRLSPGDRIWEPFELMNTFLDFPSPALFLSHHFPSLSREIFPQTSSSTVNTQLNWTETPTAHVFKAYLPGVDQDEVIAFVDEEGYLQIATGDNKFMSRFKLPNNALTDQVTAWMEDEFLVVFVEKDASSSPPQLPEIEENRNVRVVEITGDDD
Regarding B5, in series [6], the “stoichiometry N” value was 2.

B6: AtHsp18.5 with C-terminal Strep II tag (natural protein, Arabidopsis thaliana, UniProt O64564 1-162, looked up)
chain: MSMIPISNRRRLSPGDRIWEPFELMNTFLDFPSPALFLSHHFPSLSREIFPQTSSSTVNTQLNWTETPTAHVFKAYLPGVDQDEVIAFVDEEGYLQICTGDNKFMSRFKLPNNALTDQVTAWMEDEFLVVFVEKDASSSPPQLPEIEENRNVRVVEITGDDD
For B6, in the series “native gel or EMSA”, the “stoichiometry N” value was determined as 2.

B7: PsHsp18.1, cytosolic class I sHSP from Pisum sativum (natural protein, UniProt P19243 1-158, looked up)
chain: MSLIPSFFSGRRSNVFDPFSLDVWDPLKDFPFSNSSPSASFPRENPAFVSTRVDWKETPEAHVFKADLPGLKKEEVKVEVEDDRVLQISGERSVEKEDKNDEWHRVERSSGKFLRRFRLPENAKMDKVKASMENGVLTVTVPKEEIKKAEVKSIEISG
Regarding B7, the binding result (in series [7]; with firefly luciferase) was “binds” in each case.

B8: the binding result in “native MS [5]” is “binds”.

With B9, the binding result in the series “native MS [5]” is listed as “binds”.
